Source: US20250026841A1

Biological target: p95HER2 expressed on cells (p95HER2-HEK293, p95HER2-expressing NCI-H292) (human) (UniProt P04626)
Test: flow cytometry on p95HER2-expressing NCI-H292 cells, ug/mL is the unit of the x axis

| EC50 [µg/mL] | Binder |
| --- | --- |
| 0.399 | anti-p95HER2 antibody clone R4-5 (antibody, human IgG1, kappa, V domains shown) VH: QITLKESGPALVKPTQTLTLTCTFSGFSLSTSGVGVGWIRQPPGKALEWLALIYWDDDKRYSPSLKSRLTITKDTSKNQVVLTMTNMDPVDTATYYCAHSRLPYNSHGYWGQGTTVTVSS VL: DIQMTQSPSSLSASVGDRVTITCQASQAIGNYLSWYQQKPGRAPKLLIYAASTLHSGVPSRFSGSGSGTDFTLTITSLQPDDFATYYCQQSYSVPVTFGLGTKLEIKR |
| 0.0659 | anti-p95HER2 antibody clone R4-15 (antibody, human IgG1, V domains shown) VH: QITLKESGPTLVKPTQTLTLTCTFSGFSLSSGGVGVGWIRQPPGKALEWLALIYWDDDKRYSPSLKSRLTITKDTSKKQVVLTMTNMDPVDTATYYCAHLDYPENYFDQWGQGTLVTVSS VL: DIQMTQSPSSLSASVGDRVTFTCRASQSISTYLNWYQQKPGKAPKLLIYAASTLQSGVPSRFSGSGSGTDFTLAISSLQPEDFATYFCQQSYSFPTFGQGTRLEIKR |
